Results: article PMC10208982, “Structural basis of catalytic activation in human splicing” (Nature, 2023)

Tests used:
PRP2(137–1022) = target: T1, PRP2(137–1022) (human, UniProt O60231 137-1022); test: SEC; around 30 μg PRP2(137–1022) mixed with a 5-fold excess of cofactor in 100 μl, 1 h on ice; Superdex 200 Increase 10/300 GL; 20 mM HEPES-KOH pH 7.5, 100 mM KCl, 1.5 mM MgCl2, 5% glycerol; fractions analysed by SDS-PAGE; settings: both partners purified
T1 construct: comprises the modelled NTD (pin, clip, hook) and the helicase core; The tag can be cleaved off with HRV-3C protease; also called recombinant PRP2; source: Sf9 or Hi5 insect cells, purified (Strep-Tactin, then SEC or Q Sepharose); also co-expressed with PPIL4 in Sf9, in lysate; not shown: Twin-StrepII, N-terminal, kept
T1 sequence (looked up): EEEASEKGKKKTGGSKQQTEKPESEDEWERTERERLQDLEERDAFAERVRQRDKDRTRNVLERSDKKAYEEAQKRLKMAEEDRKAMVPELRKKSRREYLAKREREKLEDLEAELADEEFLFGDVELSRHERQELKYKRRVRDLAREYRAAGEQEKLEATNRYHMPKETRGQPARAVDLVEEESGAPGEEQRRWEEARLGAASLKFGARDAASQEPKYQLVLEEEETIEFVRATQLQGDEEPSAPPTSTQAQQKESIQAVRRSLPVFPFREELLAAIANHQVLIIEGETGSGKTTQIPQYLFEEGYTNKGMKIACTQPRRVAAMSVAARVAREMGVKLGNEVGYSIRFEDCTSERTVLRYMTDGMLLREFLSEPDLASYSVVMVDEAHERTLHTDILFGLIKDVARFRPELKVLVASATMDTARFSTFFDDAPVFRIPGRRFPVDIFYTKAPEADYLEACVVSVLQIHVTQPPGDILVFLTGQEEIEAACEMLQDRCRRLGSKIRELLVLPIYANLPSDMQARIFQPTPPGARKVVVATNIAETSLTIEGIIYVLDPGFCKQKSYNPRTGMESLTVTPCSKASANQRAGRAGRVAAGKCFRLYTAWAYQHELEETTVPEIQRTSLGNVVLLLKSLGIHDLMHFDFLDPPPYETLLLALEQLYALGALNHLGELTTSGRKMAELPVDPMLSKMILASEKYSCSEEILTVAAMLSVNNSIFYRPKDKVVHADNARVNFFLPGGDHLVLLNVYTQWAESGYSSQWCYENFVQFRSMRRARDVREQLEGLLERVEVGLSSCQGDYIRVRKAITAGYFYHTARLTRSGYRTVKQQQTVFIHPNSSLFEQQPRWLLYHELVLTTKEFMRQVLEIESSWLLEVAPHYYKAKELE

[1] = target: T2, PRP2 (DHX16) 137-1022;PPIL4 (Homo sapiens;Homo sapiens, UniProt O60231;Q8WUA2 137-1022;1-492, |); test: EMSA; purified co-expressed complex; 2 mM Mg2+; EMSA: 50 nM RNA, 0.1-8 uM protein, 20 mM HEPES-KOH pH 7.5, 50 mM KCl, 2 mM MgCl2, 0.1 mg/ml BSA, 5% glycerol, 30 min room temperature; 5% native gel in Tris-glycine; settings: protein: recombinant;recombinant; tags: N-terminal Twin-StrepII;untagged (Twin-StrepII removed by HRV-3C); copies: 1;1; label: Cy5 at 3' end of S3; 18 bp duplex, 3' overhang 30 nt on S4
T2 sequence 1: T1 sequence (looked up)
T2 sequence 2: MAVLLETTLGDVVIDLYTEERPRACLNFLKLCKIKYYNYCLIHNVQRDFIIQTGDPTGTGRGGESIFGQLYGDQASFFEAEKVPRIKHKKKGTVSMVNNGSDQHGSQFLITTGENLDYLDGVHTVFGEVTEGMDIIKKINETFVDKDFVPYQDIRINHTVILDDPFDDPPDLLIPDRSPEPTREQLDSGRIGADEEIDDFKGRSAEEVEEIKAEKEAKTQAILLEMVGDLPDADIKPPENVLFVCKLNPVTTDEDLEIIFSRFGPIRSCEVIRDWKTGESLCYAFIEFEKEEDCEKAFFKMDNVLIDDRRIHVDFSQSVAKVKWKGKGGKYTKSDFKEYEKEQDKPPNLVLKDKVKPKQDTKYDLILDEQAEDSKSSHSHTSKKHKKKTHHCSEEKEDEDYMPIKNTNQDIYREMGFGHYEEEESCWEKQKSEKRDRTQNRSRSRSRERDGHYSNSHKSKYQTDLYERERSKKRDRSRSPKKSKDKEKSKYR

PPIL4 = target: T3, PPIL4 (Homo sapiens, UniProt Q8WUA2 1-492); test: EMSA; no PRP2; 2 mM Mg2+; EMSA: 50 nM RNA, 0.1-8 uM protein, 20 mM HEPES-KOH pH 7.5, 50 mM KCl, 2 mM MgCl2, 0.1 mg/ml BSA, 5% glycerol, 30 min room temperature; 5% native gel in Tris-glycine; settings: protein: recombinant; tags: untagged (Twin-StrepII removed by HRV-3C); label: Cy5 at 3' end of S3; 18 bp duplex, 3' overhang 30 nt on S4
T3 sequence: T2 sequence 2

PRP2 (DHX16) 137-1022 = target: T4, PRP2 (DHX16) 137-1022 (Homo sapiens, UniProt O60231 137-1022); test: EMSA; 2 mM Mg2+; EMSA: 50 nM RNA, 0.1-8 uM protein, 20 mM HEPES-KOH pH 7.5, 50 mM KCl, 2 mM MgCl2, 0.1 mg/ml BSA, 5% glycerol, 30 min room temperature; 5% native gel in Tris-glycine; settings: protein: recombinant; tags: N-terminal Twin-StrepII; label: Cy5 at 3' end of S3; 18 bp duplex, 3' overhang 30 nt on S4
T4 sequence: T1 sequence (looked up)

GPKOW = target: T5, GPKOW (Homo sapiens, UniProt Q92917 1-476); test: as above; settings: protein: recombinant; tags: N-terminal Twin-StrepII; label: Cy5 at 3' end of S3; 18 bp duplex, 3' overhang 30 nt on S4
T5 sequence: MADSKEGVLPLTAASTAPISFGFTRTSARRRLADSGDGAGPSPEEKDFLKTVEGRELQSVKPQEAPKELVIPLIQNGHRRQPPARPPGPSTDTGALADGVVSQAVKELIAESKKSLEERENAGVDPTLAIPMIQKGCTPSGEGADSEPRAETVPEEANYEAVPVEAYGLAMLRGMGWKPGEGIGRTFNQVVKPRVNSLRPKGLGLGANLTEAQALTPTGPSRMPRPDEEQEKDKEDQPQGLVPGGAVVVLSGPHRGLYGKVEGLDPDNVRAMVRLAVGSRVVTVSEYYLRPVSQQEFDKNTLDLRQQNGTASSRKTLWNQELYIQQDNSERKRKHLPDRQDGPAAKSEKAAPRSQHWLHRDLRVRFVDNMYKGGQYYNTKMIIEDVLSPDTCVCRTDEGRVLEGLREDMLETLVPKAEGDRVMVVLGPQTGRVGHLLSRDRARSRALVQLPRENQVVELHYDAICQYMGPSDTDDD

[2] = target: T6, PRP2 (DHX16) 137-1022;GPKOW (Homo sapiens;Homo sapiens, UniProt O60231;Q92917 137-1022;1-476, |); test: EMSA; complex assembled in vitro; 2 mM Mg2+; EMSA: 50 nM RNA, 0.1-8 uM protein, 20 mM HEPES-KOH pH 7.5, 50 mM KCl, 2 mM MgCl2, 0.1 mg/ml BSA, 5% glycerol, 30 min room temperature; 5% native gel in Tris-glycine; settings: protein: recombinant;recombinant; tags: N-terminal Twin-StrepII;N-terminal Twin-StrepII; copies: 1;1; label: Cy5 at 3' end of S3; 18 bp duplex, 3' overhang 30 nt on S4
T6 sequence 1: T1 sequence (looked up)
T6 sequence 2: T5 sequence

Measured: binding result

B1: GPKOW (natural protein, human, UniProt Q92917 1-476, looked up)
chain: T5 sequence
notes: human GPKOW, codon-optimized synthetic gene (GeneArt); also called PRP2 cofactor GPKOW; source: Sf9 or Hi5 insect cells, purified (Strep-Tactin, SEC); not shown: Twin-StrepII, N-terminal, kept
binds: PRP2(137–1022)

B2: Cy5 RNA duplex with 30-nt 3' overhang (dsRNA)
RNA 1: GCGCCUACGGAGCUGGUGGCGUAGGCGCAAAAAAAAAAAAAAAAAAAA
RNA 2: CACCAGCUCCGUAGGCGC
not listed: PRP2(137–1022)
binds: all other assays above
